Patent US20240216509A1

Target: PD-L1 CAR (2nd generation CAR, PDL1-CD28-CD3ζ) expressed on NK-92 cells (human) (UniProt P01732)
Assay: cell-based or functional assay

UniProt P01732, sequence (P01732 other isoform, or with tags, fused parts or gaps limits assumed): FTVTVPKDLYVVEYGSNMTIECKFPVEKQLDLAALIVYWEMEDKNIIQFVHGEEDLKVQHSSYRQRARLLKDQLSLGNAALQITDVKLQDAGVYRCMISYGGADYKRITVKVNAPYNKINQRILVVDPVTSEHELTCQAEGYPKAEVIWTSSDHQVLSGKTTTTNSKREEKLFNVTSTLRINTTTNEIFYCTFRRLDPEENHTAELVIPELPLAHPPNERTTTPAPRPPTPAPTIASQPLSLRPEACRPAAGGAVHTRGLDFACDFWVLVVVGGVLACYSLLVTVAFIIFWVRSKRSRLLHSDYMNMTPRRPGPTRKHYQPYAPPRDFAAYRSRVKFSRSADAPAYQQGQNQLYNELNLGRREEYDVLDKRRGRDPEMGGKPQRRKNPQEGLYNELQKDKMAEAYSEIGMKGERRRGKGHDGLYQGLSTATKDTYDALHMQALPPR

EC50 of degranulation of CAR NK-92 over increasing concentrations of plate-bound rhPD-1-Fc: 0.61 µg/mL
Substance: recombinant human PD-1-Fc fusion protein (rhPD-1-Fc) (from UniProt Q15116 25-167)
